Experimental findings from patent US20080292620A1 are described below.

A word on the Kd: it is the constant that tells how readily two partners part at equilibrium.

In experiment [1] the target is recombinant extracellular domain (ECD) of the human prolactin receptor (PRLR) (human) (UniProt P16471). As to the kind of experiment: Biacore 2000 SPR, antibody captured, PRLR ECD injected.
Experiment [2] deals with T1, human prolactin receptor (PRLR), full length on cells (human) (UniProt P16471).
T1 sequence: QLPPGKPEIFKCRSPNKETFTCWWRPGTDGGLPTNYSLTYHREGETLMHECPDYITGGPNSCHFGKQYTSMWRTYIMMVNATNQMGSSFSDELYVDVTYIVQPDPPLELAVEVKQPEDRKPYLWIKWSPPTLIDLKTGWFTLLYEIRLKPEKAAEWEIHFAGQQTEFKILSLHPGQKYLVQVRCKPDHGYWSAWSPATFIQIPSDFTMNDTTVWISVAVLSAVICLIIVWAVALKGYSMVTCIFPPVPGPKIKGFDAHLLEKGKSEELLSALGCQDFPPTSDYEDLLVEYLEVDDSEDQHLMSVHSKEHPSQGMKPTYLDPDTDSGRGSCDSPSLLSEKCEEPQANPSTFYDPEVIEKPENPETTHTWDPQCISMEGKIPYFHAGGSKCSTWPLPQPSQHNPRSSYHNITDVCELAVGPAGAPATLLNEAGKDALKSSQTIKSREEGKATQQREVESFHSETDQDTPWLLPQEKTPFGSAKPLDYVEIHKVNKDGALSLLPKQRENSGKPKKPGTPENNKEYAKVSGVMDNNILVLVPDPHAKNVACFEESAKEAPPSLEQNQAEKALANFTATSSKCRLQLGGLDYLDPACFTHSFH
Nature of the experiment: cell-based or functional assay.

For experiment [3], the target named is recombinant extracellular domain (ECD) of the human prolactin receptor (PRLR) (human) (UniProt P16471). Nature of the experiment: Biacore SPR, procedures similar to Table 6, PRLR ECD.

B1: XHA.06.983 (antibody, from another filing, V domains shown)
VH: DVQLVESGGGLVQPGGSRKLSCAASGFAFSSFGMQWVRQAPEKGLEWVAYISSGSSTIYYADTVKGRFTISRDNPKNTLFLQMTSLRSEDTAMYYCVRSGRDYWGQGTSVTVSS
VL: SIVMTQTPKFLLVSAGDRVTITCKASQGVSNDVAWFQQKPGQSPKLLIYSASTRYTGVPDRLTGSGYGTDFTFTINTVQAEDLAVYFCQQDYTSPTFGGGTKLEIKR
For B1, the Kd in experiment [1] is 0.1 nM. In experiment [2], this molecule registered a Proliferation inhibition IC50 for BaF3/PRLR of 0.1 and a pERK1/2 inhibition IC50 (prolactin-stimulated T47D cells) of 0.11. Also, in experiment [3], the Kd stood at 0.043 nM.

B2: XHA.06.642 (antibody, from another filing, V domains shown)
VH: EVQLVESGGDLVKPGGSLKLSCAVSGFTFSSYGMSWVRQTPDKRLEWVATVSSGGTYTYYPDSVKGRFTISRDNAKNTLYLQMSSLKSEDSAMYYCARHRGNYYATYYYAMDYWGQGTSVTVSS
VL: DIVLTQSPASLAVSLGQGATISCRASKSVSTSGYTYMHWYQQKPGQPPKLLIYLASNLESGVPARFSGSGSGTDFTLNIHPVEEEDAATYYCQHSGELPPSFGGGTKLEIKR
In the case of B2, the Kd in experiment [3] worked out at 0.934 nM.
